Experimental data published in patent US20260015399A1 (Boehringer Ingelheim, published 2026).
*1 amine or outer side, *2 acyl side, *3 side chain or, on linkers, in order; H or OH if unused. Side-chain parts run from the residue outwards. The star is where a group is joined. C18 diacid = O=C(O)CCCCCCCCCCCCCCCCC(=O)*; γGlu = O=C(O)[C@H](CCC(=O)[*:2])N[*:1]; Isovaleryl = CC(C)CC(=O)*; Ahx = NCCCCCC(=O)O

T1: human NPY5 receptor (human, UniProt Q15761 1-445)
T1 sequence (looked up): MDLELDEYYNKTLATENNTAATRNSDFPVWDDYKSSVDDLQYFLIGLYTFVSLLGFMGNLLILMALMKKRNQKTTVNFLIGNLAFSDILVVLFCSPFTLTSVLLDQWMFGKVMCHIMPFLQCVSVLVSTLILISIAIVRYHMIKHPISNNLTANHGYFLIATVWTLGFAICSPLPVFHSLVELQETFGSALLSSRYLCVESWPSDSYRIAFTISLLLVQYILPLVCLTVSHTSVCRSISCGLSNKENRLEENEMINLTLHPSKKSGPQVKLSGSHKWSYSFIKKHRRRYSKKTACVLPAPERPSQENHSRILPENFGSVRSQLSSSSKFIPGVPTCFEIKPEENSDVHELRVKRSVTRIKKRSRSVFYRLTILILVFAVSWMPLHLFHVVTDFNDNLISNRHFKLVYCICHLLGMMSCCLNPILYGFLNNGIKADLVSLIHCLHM

T2: human NPY2 receptor (human, UniProt P49146 1-381)
T2 sequence (looked up): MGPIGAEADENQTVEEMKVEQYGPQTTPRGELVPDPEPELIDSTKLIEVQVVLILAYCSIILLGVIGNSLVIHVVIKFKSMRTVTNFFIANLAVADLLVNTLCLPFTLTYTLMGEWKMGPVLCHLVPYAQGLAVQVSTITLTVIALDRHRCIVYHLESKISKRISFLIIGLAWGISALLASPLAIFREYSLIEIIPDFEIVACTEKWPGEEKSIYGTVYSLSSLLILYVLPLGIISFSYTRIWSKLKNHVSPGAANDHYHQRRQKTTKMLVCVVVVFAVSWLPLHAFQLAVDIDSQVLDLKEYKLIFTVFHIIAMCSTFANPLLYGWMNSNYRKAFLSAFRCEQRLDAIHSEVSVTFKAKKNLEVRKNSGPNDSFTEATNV

T3: human NPY1 receptor (human, UniProt P25929 1-384)
T3 sequence (looked up): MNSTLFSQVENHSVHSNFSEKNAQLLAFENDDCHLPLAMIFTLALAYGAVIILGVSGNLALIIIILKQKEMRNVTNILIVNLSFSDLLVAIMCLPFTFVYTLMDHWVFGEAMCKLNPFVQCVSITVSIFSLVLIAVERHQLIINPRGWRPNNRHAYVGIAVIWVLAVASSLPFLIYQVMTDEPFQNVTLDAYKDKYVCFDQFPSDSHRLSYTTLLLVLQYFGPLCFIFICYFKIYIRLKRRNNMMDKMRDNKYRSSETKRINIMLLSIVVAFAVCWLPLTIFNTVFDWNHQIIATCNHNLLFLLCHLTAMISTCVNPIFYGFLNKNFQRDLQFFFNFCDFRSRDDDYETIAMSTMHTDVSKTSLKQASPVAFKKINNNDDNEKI

B1: Compound 195 (peptide)
peptide: Isovaleryl-APAK([Ahx-γGlu-C18 diacid])PEEDASPEEIQRYYISLRHYYNWLTRQRY-NH2
SMILES: CC[C@H](C)[C@H](NC(=O)[C@H](Cc1ccc(O)cc1)NC(=O)[C@H](Cc1ccc(O)cc1)NC(=O)[C@H](CCCNC(=N)N)NC(=O)[C@H](CCC(N)=O)NC(=O)[C@@H](NC(=O)[C@H](CCC(=O)O)NC(=O)[C@H](CCC(=O)O)NC(=O)[C@@H]1CCCN1C(=O)[C@H](CO)NC(=O)[C@H](C)NC(=O)[C@H](CC(=O)O)NC(=O)[C@H](CCC(=O)O)NC(=O)[C@H](CCC(=O)O)NC(=O)[C@@H]1CCCN1C(=O)[C@H](CCCCNC(=O)CCCCCNC(=O)CC[C@H](NC(=O)CCCCCCCCCCCCCCCCC(=O)O)C(=O)O)NC(=O)[C@H](C)NC(=O)[C@@H]1CCCN1C(=O)[C@H](C)NC(=O)CC(C)C)[C@@H](C)CC)C(=O)N[C@@H](CO)C(=O)N[C@@H](CC(C)C)C(=O)N[C@@H](CCCNC(=N)N)C(=O)N[C@@H](Cc1c[nH]cn1)C(=O)N[C@@H](Cc1ccc(O)cc1)C(=O)N[C@@H](Cc1ccc(O)cc1)C(=O)N[C@@H](CC(N)=O)C(=O)N[C@@H](Cc1c[nH]c2ccccc12)C(=O)N[C@@H](CC(C)C)C(=O)N[C@H](C(=O)N[C@@H](CCCNC(=N)N)C(=O)N[C@@H](CCC(N)=O)C(=O)N[C@@H](CCCNC(=N)N)C(=O)N[C@@H](Cc1ccc(O)cc1)C(N)=O)[C@@H](C)O

Each binder was assayed against T1, human NPY5 receptor (assay: cell-based or functional assay).

EC50, HTRF cAMP Gi assay [nM] | Binder
> 5000 | Isovaleryl-APAK([Ahx-γGlu-C18 diacid])PEEDASPEEIQRYYVSLRHYYNWLTRQRY-NH2 [Compound 63]
> 5000 | B1
> 5000 | Isovaleryl-APEK([Ahx-γGlu-C18 diacid])PEADASPEELQRYYVALRHYYNWLTRQRY-NH2 [Compound 163]

The binders below were run against T2, human NPY2 receptor (assay: cell-based or functional assay).

EC50, HTRF cAMP Gi assay [nM] | Binder
0.109 | Isovaleryl-APAK([Ahx-γGlu-C18 diacid])PEEDASPEEIQRYYVSLRHYYNWLTRQRY-NH2 [Compound 63]
0.197 | B1
0.13 | Isovaleryl-APEK([Ahx-γGlu-C18 diacid])PEADASPEELQRYYVALRHYYNWLTRQRY-NH2 [Compound 163]

Each binder was assayed against human NPY4 receptor (human, UniProt P50391 1-375) (assay: cell-based or functional assay).
Sequence of human NPY4 receptor (P50391 whole entry): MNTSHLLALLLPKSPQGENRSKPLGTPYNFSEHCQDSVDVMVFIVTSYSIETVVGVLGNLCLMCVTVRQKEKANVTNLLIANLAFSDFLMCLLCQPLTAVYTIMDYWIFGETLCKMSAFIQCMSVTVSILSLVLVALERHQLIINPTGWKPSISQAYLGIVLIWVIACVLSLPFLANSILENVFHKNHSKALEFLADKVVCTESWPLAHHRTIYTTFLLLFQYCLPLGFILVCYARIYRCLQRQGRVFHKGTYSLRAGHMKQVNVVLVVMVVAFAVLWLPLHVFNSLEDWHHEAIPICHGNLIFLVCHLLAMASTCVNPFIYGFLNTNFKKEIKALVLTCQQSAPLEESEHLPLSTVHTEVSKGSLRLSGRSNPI

EC50, HTRF cAMP Gi assay [nM] | Binder
> 5000 | Isovaleryl-APAK([Ahx-γGlu-C18 diacid])PEEDASPEEIQRYYVSLRHYYNWLTRQRY-NH2 [Compound 63]
> 5000 | B1
> 5000 | Isovaleryl-APEK([Ahx-γGlu-C18 diacid])PEADASPEELQRYYVALRHYYNWLTRQRY-NH2 [Compound 163]

What follows are binders tested against T3, human NPY1 receptor (assay: cell-based or functional assay).

EC50, HTRF cAMP Gi assay [nM] | Binder
> 5000 | Isovaleryl-APAK([Ahx-γGlu-C18 diacid])PEEDASPEEIQRYYVSLRHYYNWLTRQRY-NH2 [Compound 63]
> 5000 | B1
> 5000 | Isovaleryl-APEK([Ahx-γGlu-C18 diacid])PEADASPEELQRYYVALRHYYNWLTRQRY-NH2 [Compound 163]

Each binder was assayed against T2, human NPY2 receptor (assay: RLB (125I-PYY(1-36) displacement, hNPY2R membranes), peptide from DMSO stock).
Protocol: The filtration RLB assay was carried out in 96-well plates in a final volume of 100 μl per well. Freeze-dried test peptides were dissolved in 100% dimethyl sulfoxide (DMSO) to stock solutions of 1 mM and serial dilutions were performed in assay buffer (50 mM HEPES, 5 mM MgCl₂, 1 mM CaCl₂), pH 7.4) containing 0.2% ovalbumin. […] Next, 80 μL membranes (HTS066M, ChemiSCREEN™ Human Neuropeptide Y2 Receptor Membrane Preparation, CHEMICON) were added to each well to give a final protein concentration of 0.5 μg/well. The plates were sealed and incubated at room temperature for 2 hours in a plate shaker set at 400 rpm. The incubation was stopped by vacuum filtration onto 0.5% polyethylene amine (PEI) presoaked GF/C filters using a 96-well FilterMate™ harvester (Perkin Elmer) followed by four washes with 300 μl/well ice-cold wash buffer (50 mM HEPES, 500 mM NaCl, pH7.4). Filter plates were then dried for 60 min at room temperature and the bottom of the plates was sealed with backing tape UniFilter-96. Finally, 50 μl/well scintillation counter cocktail (Microscint20, Packard) was added and the radioactivity was counted in the Packard TopCount NXT scintillation counter. IC₅₀ values (the half maximal inhibitory concentration of the agonist) were calculated by nonlinear regression analysis of sigmoidal dose-response curves. […]

Ki [nM] | Binder
6.6 | Isovaleryl-APAK([Ahx-γGlu-C18 diacid])PEEDASPEEIQRYYVSLRHYYNWLTRQRY-NH2 [Compound 63]

Each binder was assayed against T2, human NPY2 receptor (assay: RLB, apparent Ki of filtrate after incubation at pH 8.1-8.2 (assumed 10 mg/ml)).
Protocol: The filtration RLB assay was carried out in 96-well plates in a final volume of 100 μl per well. Freeze-dried test peptides were dissolved in 100% dimethyl sulfoxide (DMSO) to stock solutions of 1 mM and serial dilutions were performed in assay buffer (50 mM HEPES, 5 mM MgCl₂, 1 mM CaCl₂), pH 7.4) containing 0.2% ovalbumin. […] Next, 80 μL membranes (HTS066M, ChemiSCREEN™ Human Neuropeptide Y2 Receptor Membrane Preparation, CHEMICON) were added to each well to give a final protein concentration of 0.5 μg/well. The plates were sealed and incubated at room temperature for 2 hours in a plate shaker set at 400 rpm. The incubation was stopped by vacuum filtration onto 0.5% polyethylene amine (PEI) presoaked GF/C filters using a 96-well FilterMate™ harvester (Perkin Elmer) followed by four washes with 300 μl/well ice-cold wash buffer (50 mM HEPES, 500 mM NaCl, pH7.4). Filter plates were then dried for 60 min at room temperature and the bottom of the plates was sealed with backing tape UniFilter-96. Finally, 50 μl/well scintillation counter cocktail (Microscint20, Packard) was added and the radioactivity was counted in the Packard TopCount NXT scintillation counter. IC₅₀ values (the half maximal inhibitory concentration of the agonist) were calculated by nonlinear regression analysis of sigmoidal dose-response curves.
The peptide was (partially) dissolved by shaking the filter unit horizontally at approx. 400 rpm for 2 hours at room temperature. The sample was filtered to remove any insoluble particles.

Ki [nM] | Binder
4.9 | Isovaleryl-APEK([Ahx-γGlu-C18 diacid])PEADASPEELQRYYVALRHYYNWLTRQRY-NH2 [Compound 163]

The binders below were run against T2, human NPY2 receptor (assay: RLB: displacement of 125I-PYY(1-36) from hNPY2R membranes).

Ki [nM] | Binder
0.93 | Isovaleryl-APAK([Ahx-γGlu-C18 diacid])PEEDASPEEIQRYYVSLRHYYNWLTRQRY-NH2 [Compound 63]
0.78 | B1
0.67 | Isovaleryl-APEK([Ahx-γGlu-C18 diacid])PEADASPEELQRYYVALRHYYNWLTRQRY-NH2 [Compound 163]
